Test results: patent publication US20230218721A1, “INCRETIN ANALOGUE, PREPARATION METHOD THEREFOR, AND USE THEREOF” (ZHEJIANG DOER BIOLOGICS CO., LTD., priority 2020, published 2023)

Biological target: human glucagon-like peptide-1 receptor (GLP-1R) (human (printed as 'Humanized')) (UniProt P43220)
Assay: cell-based or functional assay

Sequence of human glucagon-like peptide-1 receptor (GLP-1R) (human (printed as 'Humanized')) (P43220 24-463): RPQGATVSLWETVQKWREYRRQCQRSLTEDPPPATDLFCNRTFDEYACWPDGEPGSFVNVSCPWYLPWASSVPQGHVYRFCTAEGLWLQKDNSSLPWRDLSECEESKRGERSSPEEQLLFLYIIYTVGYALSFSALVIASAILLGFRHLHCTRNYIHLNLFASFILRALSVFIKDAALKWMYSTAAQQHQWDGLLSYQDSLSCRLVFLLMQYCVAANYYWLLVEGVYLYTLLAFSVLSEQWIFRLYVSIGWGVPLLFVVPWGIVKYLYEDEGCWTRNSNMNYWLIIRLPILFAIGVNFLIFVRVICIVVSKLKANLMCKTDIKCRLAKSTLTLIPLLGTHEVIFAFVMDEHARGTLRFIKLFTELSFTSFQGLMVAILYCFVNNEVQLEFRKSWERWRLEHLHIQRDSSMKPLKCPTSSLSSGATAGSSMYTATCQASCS

GLP-1R agonist activity (EC50, nM): 0.01 nM
Substance: Dulaglutide (Trade name: Trulicity) (Fc fusion)
